This data set relates to Escherichia coli TOP10. In words: shrunken log2 fold change of peptide-encoding DNA abundance (4.5 h post-induction vs induction); higher = less antimicrobial activity (less host growth inhibition). The conditions noted are these: time post-induction: 4.5 h; library: site-saturation at positions 5, 18, 19, 20.
RRIRFRPPRLPRPRPRPATTPRP: the “shrunken log2 fold change” value is -0.0275.
Regarding RRIRQRPPRLPRPRPRPHFMPRP, the “shrunken log2 fold change” value was -0.0158.
RRIRFRPPRLPRPRPRPLQGPRP: the “shrunken log2 fold change” value was determined as 0.0475.
For RRIRHRPPRLPRPRPRPWLRPRP, the “shrunken log2 fold change” value is -0.0716.
As for RRIRKRPPRLPRPRPRPGWPPRP, the “shrunken log2 fold change” value turned out to be 0.424.
Consider RRIRERPPRLPRPRPRPGEFPRP, for which the “shrunken log2 fold change” value was determined as 0.033.
The same measure for RRIRKRPPRLPRPRPRPAIGPRP: 1.04.
Regarding RRIRQRPPRLPRPRPRPCAEPRP, the “shrunken log2 fold change” value is -0.135.
In the case of RRIRVRPPRLPRPRPRPEFSPRP, the “shrunken log2 fold change” value was -0.0024.
For the sequence RRIRKRPPRLPRPRPRPRLRPRP, the “shrunken log2 fold change” value turned out to be 0.485.
The same measure for RRIRLRPPRLPRPRPRPSLDPRP: -0.142; for RRIRNRPPRLPRPRPRPLNWPRP: -0.269.
For RRIRPRPPRLPRPRPRPCISPRP, the “shrunken log2 fold change” value is -0.0753.
In the case of RRIRARPPRLPRPRPRPQVRPRP, the “shrunken log2 fold change” value was -0.0207.
RRIRFRPPRLPRPRPRPHPYPRP: the “shrunken log2 fold change” value worked out at 0.0415.
The result for RRIRPRPPRLPRPRPRPSHSPRP reads -0.368; that for RRIRERPPRLPRPRPRPVNKPRP, -0.31.
With RRIRGRPPRLPRPRPRPYCMPRP, the “shrunken log2 fold change” value is -0.148.
The result for RRIRQRPPRLPRPRPRPIHKPRP reads -0.651; that for RRIRMRPPRLPRPRPRPANHPRP, 0.0312.
On to RRIRHRPPRLPRPRPRPYDGPRP, for which the “shrunken log2 fold change” value was -0.00992.
As to RRIRTRPPRLPRPRPRPCEFPRP, the “shrunken log2 fold change” value was -0.258.
Take RRIRGRPPRLPRPRPRPKMEPRP: the “shrunken log2 fold change” value was determined as 0.582.
The result for RRIRERPPRLPRPRPRPPQHPRP reads 0.128; that for RRIRLRPPRLPRPRPRPKRIPRP, 0.109.
As to RRIRPRPPRLPRPRPRPSCDPRP, the “shrunken log2 fold change” value is -0.273.
Consider RRIRARPPRLPRPRPRPFYCPRP, for which the “shrunken log2 fold change” value is -0.402.
Turning to RRIRKRPPRLPRPRPRPQDYPRP, the “shrunken log2 fold change” value was 0.118.
For the sequence RRIRNRPPRLPRPRPRPYRGPRP, the “shrunken log2 fold change” value is -0.0134.
On to RRIRQRPPRLPRPRPRPIRSPRP, for which the “shrunken log2 fold change” value is -0.0132.
RRIRCRPPRLPRPRPRPFENPRP: the “shrunken log2 fold change” value is -0.0274.
RRIRYRPPRLPRPRPRPTIKPRP: the “shrunken log2 fold change” value is -0.151.
For RRIRMRPPRLPRPRPRPYTLPRP, the “shrunken log2 fold change” value was -0.274.
On to RRIRHRPPRLPRPRPRPRVHPRP, for which the “shrunken log2 fold change” value came to 0.0785.
For RRIRRRPPRLPRPRPRPRTYPRP, the “shrunken log2 fold change” value is -0.213.
Regarding RRIRGRPPRLPRPRPRPGRTPRP, the “shrunken log2 fold change” value came to 0.498.
Consider RRIRGRPPRLPRPRPRPVFRPRP, for which the “shrunken log2 fold change” value came out at 0.375.
For the sequence RRIRHRPPRLPRPRPRPNPPPRP, the “shrunken log2 fold change” value came to 0.0899.
Consider RRIRSRPPRLPRPRPRPLWKPRP, for which the “shrunken log2 fold change” value amounted to 0.197.
As to RRIRHRPPRLPRPRPRPFLYPRP, the “shrunken log2 fold change” value was -0.624.
Take RRIRPRPPRLPRPRPRPQTLPRP: the “shrunken log2 fold change” value is 0.000929.
Consider RRIRTRPPRLPRPRPRPNSYPRP, for which the “shrunken log2 fold change” value is -0.188.
Consider RRIRERPPRLPRPRPRPAQDPRP, for which the “shrunken log2 fold change” value came to 0.00521.
For the sequence RRIRWRPPRLPRPRPRPIPSPRP, the “shrunken log2 fold change” value came to 0.0317.
Regarding RRIRPRPPRLPRPRPRPTQIPRP, the “shrunken log2 fold change” value stood at 0.13.
Consider RRIRLRPPRLPRPRPRPENNPRP, for which the “shrunken log2 fold change” value is -0.406.
As to RRIRWRPPRLPRPRPRPHDWPRP, the “shrunken log2 fold change” value was 0.15.
In the case of RRIRGRPPRLPRPRPRPRVDPRP, the “shrunken log2 fold change” value amounted to 1.57.
Consider RRIRPRPPRLPRPRPRPGTSPRP, for which the “shrunken log2 fold change” value was -0.0162.
Turning to RRIRMRPPRLPRPRPRPDYCPRP, the “shrunken log2 fold change” value is -0.369.
The result for RRIRTRPPRLPRPRPRPCVLPRP reads 0.0134; that for RRIRYRPPRLPRPRPRPQFLPRP, -0.132.
Turning to RRIRYRPPRLPRPRPRPWHTPRP, the “shrunken log2 fold change” value was -1.52.
As to RRIRKRPPRLPRPRPRPQEYPRP, the “shrunken log2 fold change” value is -0.0576.
Take RRIRMRPPRLPRPRPRPCMSPRP: the “shrunken log2 fold change” value is -0.00161.
With RRIRFRPPRLPRPRPRPYLCPRP, the “shrunken log2 fold change” value is -0.477.
For the sequence RRIRMRPPRLPRPRPRPIGKPRP, the “shrunken log2 fold change” value came to 0.208.
Consider RRIRIRPPRLPRPRPRPTWHPRP, for which the “shrunken log2 fold change” value is -0.242.
Regarding RRIRLRPPRLPRPRPRPTCIPRP, the “shrunken log2 fold change” value is -0.123.
Turning to RRIRKRPPRLPRPRPRPNTDPRP, the “shrunken log2 fold change” value is -0.261.
The same measure for RRIRMRPPRLPRPRPRPPGWPRP: 1.25; for RRIRERPPRLPRPRPRPWVSPRP: -0.0377.
As to RRIRLRPPRLPRPRPRPDHSPRP, the “shrunken log2 fold change” value was -0.0489.
For RRIRFRPPRLPRPRPRPLDLPRP, the “shrunken log2 fold change” value is -0.366.
The same measure for RRIRIRPPRLPRPRPRPIRCPRP: 0.0793; for RRIRKRPPRLPRPRPRPRHGPRP: -0.0248; for RRIRKRPPRLPRPRPRPVQSPRP: 0.00205.
Take RRIRIRPPRLPRPRPRPEHQPRP: the “shrunken log2 fold change” value is -0.0287.
The same measure for RRIRTRPPRLPRPRPRPCWHPRP: -0.119.
Take RRIRTRPPRLPRPRPRPKNEPRP: the “shrunken log2 fold change” value turned out to be 0.715.
RRIRYRPPRLPRPRPRPRFMPRP: the “shrunken log2 fold change” value is -0.323.
Turning to RRIRQRPPRLPRPRPRPYTKPRP, the “shrunken log2 fold change” value is -0.111.
In the case of RRIRQRPPRLPRPRPRPEFAPRP, the “shrunken log2 fold change” value turned out to be 0.482.
In the case of RRIRARPPRLPRPRPRPNKSPRP, the “shrunken log2 fold change” value was -0.174.
As for RRIRIRPPRLPRPRPRPLQRPRP, the “shrunken log2 fold change” value is -0.106.
As to RRIRVRPPRLPRPRPRPVATPRP, the “shrunken log2 fold change” value amounted to 0.212.
With RRIRRRPPRLPRPRPRPGFAPRP, the “shrunken log2 fold change” value stood at 0.315.
On to RRIRARPPRLPRPRPRPLPCPRP, for which the “shrunken log2 fold change” value worked out at 0.13.
Consider RRIRQRPPRLPRPRPRPQLEPRP, for which the “shrunken log2 fold change” value worked out at 0.307.
On to RRIRDRPPRLPRPRPRPLLLPRP, for which the “shrunken log2 fold change” value was found to be 0.468.
As to RRIRARPPRLPRPRPRPIYRPRP, the “shrunken log2 fold change” value was -0.0972.
RRIRNRPPRLPRPRPRPRIRPRP: the “shrunken log2 fold change” value was -0.0657.
For RRIRWRPPRLPRPRPRPGVAPRP, the “shrunken log2 fold change” value is 0.821.
RRIRKRPPRLPRPRPRPCYTPRP: the “shrunken log2 fold change” value is -0.0178.
On to RRIRFRPPRLPRPRPRPTASPRP, for which the “shrunken log2 fold change” value turned out to be 0.384.
The same measure for RRIRRRPPRLPRPRPRPLFNPRP: -0.162; for RRIRWRPPRLPRPRPRPLYVPRP: -0.836; for RRIRWRPPRLPRPRPRPKLSPRP: -0.0389.
For the sequence RRIRRRPPRLPRPRPRPHRIPRP, the “shrunken log2 fold change” value was -0.279.
The same measure for RRIRWRPPRLPRPRPRPLIWPRP: 0.515; for RRIRFRPPRLPRPRPRPDTRPRP: -0.324; for RRIRYRPPRLPRPRPRPFRLPRP: -0.0183.
In the case of RRIRSRPPRLPRPRPRPNKIPRP, the “shrunken log2 fold change” value was -0.294.
The result for RRIRDRPPRLPRPRPRPDRSPRP reads 0.0975; that for RRIRHRPPRLPRPRPRPDIEPRP, 0.0242.
The result for RRIRERPPRLPRPRPRPAMNPRP reads -0.28; that for RRIRGRPPRLPRPRPRPHRAPRP, 0.108; that for RRIRRRPPRLPRPRPRPHVDPRP, 0.027.
Turning to RRIRHRPPRLPRPRPRPIYLPRP, the “shrunken log2 fold change” value was -0.211.
Regarding RRIRSRPPRLPRPRPRPTCNPRP, the “shrunken log2 fold change” value came out at 0.0589.
Take RRIRLRPPRLPRPRPRPCEPPRP: the “shrunken log2 fold change” value is 0.023.
The same measure for RRIRARPPRLPRPRPRPVDKPRP: 0.363.
Take RRIRIRPPRLPRPRPRPHFPPRP: the “shrunken log2 fold change” value worked out at 0.00276.
RRIRARPPRLPRPRPRPIYWPRP: the “shrunken log2 fold change” value amounted to 0.0177.
The result for RRIRTRPPRLPRPRPRPFEYPRP reads -0.0571; that for RRIRKRPPRLPRPRPRPMQRPRP, 0.744; that for RRIRSRPPRLPRPRPRPFTCPRP, -0.0185.
The result for RRIRVRPPRLPRPRPRPFYIPRP reads -0.457.
As to RRIRNRPPRLPRPRPRPPYIPRP, the “shrunken log2 fold change” value is -0.335.
Turning to RRIRARPPRLPRPRPRPAADPRP, the “shrunken log2 fold change” value amounted to 1.13.
Consider RRIRSRPPRLPRPRPRPDECPRP, for which the “shrunken log2 fold change” value came out at 0.0932.
On to RRIRTRPPRLPRPRPRPHNLPRP, for which the “shrunken log2 fold change” value was -0.274.
In the case of RRIRGRPPRLPRPRPRPMHVPRP, the “shrunken log2 fold change” value was determined as 0.0539.
As to RRIRWRPPRLPRPRPRPLFAPRP, the “shrunken log2 fold change” value was found to be 0.579.
With RRIRNRPPRLPRPRPRPCLCPRP, the “shrunken log2 fold change” value is -0.275.
The same measure for RRIRHRPPRLPRPRPRPETCPRP: -0.0251.
With RRIRDRPPRLPRPRPRPHTLPRP, the “shrunken log2 fold change” value is -0.196.
In the case of RRIRERPPRLPRPRPRPTLSPRP, the “shrunken log2 fold change” value came out at 0.0115.
In the case of RRIRFRPPRLPRPRPRPIMQPRP, the “shrunken log2 fold change” value was -0.497.
Regarding RRIRTRPPRLPRPRPRPWDEPRP, the “shrunken log2 fold change” value is -0.167.
The same measure for RRIRCRPPRLPRPRPRPYVAPRP: -0.858; for RRIRFRPPRLPRPRPRPDTCPRP: -0.21; for RRIRQRPPRLPRPRPRPEAPPRP: 0.6.
In the case of RRIRCRPPRLPRPRPRPPTFPRP, the “shrunken log2 fold change” value was -0.331.
With RRIRMRPPRLPRPRPRPFSQPRP, the “shrunken log2 fold change” value is -0.0398.
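Also: peptides expressed intracellularly from a pBAD plasmid library in pooled LB shake-flask culture, induced with 0.3% L-arabinose, DNA abundance read by NGS, three biological replicates, DESeq2 with apeglm shrinkage.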
